Sequences and labels used below:
B1: BBSome complex member BBS2 (Homo sapiens), Q9BXC9 (parent)
chain: MLLPVFTLKLRHKISPRMVAIGRYDGTHPCLAAATQTGKVFIHNPHTRNQHVSASRVFQSPLESDVSLLSINQAVSCLTAGVLNPELGYDALLVGTQTNLLAYDVYNNSDLFYREVADGANAIVLGTLGDISSPLAIIGGNCALQGFNHEGSDLFWTVTGDNVNSLALCDFDGDGKKELLVGSEDFDIRVFKEDEIVAEMTETEIVTSLCPMYGSRFGYALSNGTVGVYDKTSRYWRIKSKNHAMSIHAFDLNSDGVNELITGWSNGKVDARSDRTGEVIFKDNFSSAIAGVVEGDYRMDGHIQLICCSVDGEIRGYLPGTAEMRGNLMDTSAEQDLIRELSQKKQNLLLELRNYEENAKAELASPLNEADGHRGIIPANTRLHTTLSVSLGNETQTAHTELRISTSNDTIIRAVLIFAEGIFTGESHVVHPSIHNLSSSICIPIVPPKDVPVDLHLKAFVGYRSSTQFHVFESTRQLPRFSMYALTSLDPASEPISYVNFTIAERAQRVVVWLGQNFLLPEDTHIQNAPFQVCFTSLRNGGHLHIKIKLSGEITINTDDIDLAGDIIQSMASFFAIEDLQVEADFPVYFEELRKVLVKVDEYHSVHQKLSADMADHSNLIRSLLVGAEDARLMRDMKTMKSRYMELYDLNRDLLNGYKIRCNNHTELLGNLKAVNQAIQRAGRLRVGKPKNQVITACRDAIRSNNINTLFKIMRVGTASS
partner: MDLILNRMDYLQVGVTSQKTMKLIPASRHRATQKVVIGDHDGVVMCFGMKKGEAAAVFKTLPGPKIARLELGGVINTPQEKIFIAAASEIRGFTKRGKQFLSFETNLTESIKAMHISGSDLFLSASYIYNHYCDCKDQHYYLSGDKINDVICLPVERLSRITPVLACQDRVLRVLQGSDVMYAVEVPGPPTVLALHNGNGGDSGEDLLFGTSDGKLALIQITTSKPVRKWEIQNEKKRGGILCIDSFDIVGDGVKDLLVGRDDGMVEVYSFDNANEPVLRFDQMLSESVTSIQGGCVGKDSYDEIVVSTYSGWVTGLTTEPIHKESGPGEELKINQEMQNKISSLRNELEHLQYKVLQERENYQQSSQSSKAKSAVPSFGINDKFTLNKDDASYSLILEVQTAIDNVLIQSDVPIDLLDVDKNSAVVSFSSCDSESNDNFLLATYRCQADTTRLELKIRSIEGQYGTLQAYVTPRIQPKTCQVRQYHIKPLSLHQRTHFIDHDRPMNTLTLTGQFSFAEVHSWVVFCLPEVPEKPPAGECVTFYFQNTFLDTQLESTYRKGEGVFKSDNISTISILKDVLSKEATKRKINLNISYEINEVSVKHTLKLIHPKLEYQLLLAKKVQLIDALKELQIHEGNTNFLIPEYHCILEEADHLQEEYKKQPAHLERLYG

Results on 84 variants are retold here after IntAct's records for PubMed 29039417.

In the test the parent is B1. The settings on record: with BBS7, Q8IWZ6-2.
For P495A, the “effect of a mutation on the interaction” value was “with no effect”.

In the case of P495K, the “effect of a mutation on the interaction” value is recorded as “with no effect”. For V461M the value was “disrupting interaction strength”; for V461E, “with no effect”; for V461K, “with no effect”. For V461A the value was “disrupting interaction strength”; for V446K, “with no effect”; for V446E, “with no effect”.

For E473K, the “effect of a mutation on the interaction” value was “with no effect”.

On to E473A, for which the “effect of a mutation on the interaction” value is “with no effect”. For Q477A the value was “with no effect”. With Q477E, the “effect of a mutation on the interaction” value is listed as “with no effect”. As to Q477K, the “effect of a mutation on the interaction” value is reported as “with no effect”. For V453A, the “effect of a mutation on the interaction” value is “with no effect”. For V453K the value was “disrupting interaction strength”; for V453E, “with no effect”.

Take R476K: the “effect of a mutation on the interaction” value is recorded as “with no effect”. The entry for R476A is “with no effect”.

Turning to R476E, the “effect of a mutation on the interaction” value is given as “with no effect”. The entry for Q468L is “disrupting interaction strength”. The entry for Q468E is “with no effect”; for Q468A it is “with no effect”; for Q468K it is “with no effect”. For H470K, the “effect of a mutation on the interaction” value is listed as “with no effect”. For H470E the value was “with no effect”; for H470A, “with no effect”. For P452A the value was “with no effect”; for P452E, “with no effect”; for P452K, “with no effect”. P479K: the “effect of a mutation on the interaction” value is recorded as “with no effect”. The entry for P479E is “disrupting interaction strength”; for P479A it is “disrupting interaction strength”; for R480K it is “with no effect”.

As to R480E, the “effect of a mutation on the interaction” value is reported as “with no effect”. The entry for R480A is “with no effect”. The entry for A492E is “with no effect”. The entry for A492K is “with no effect”; for S474E it is “with no effect”; for S474K it is “with no effect”. As to S474A, the “effect of a mutation on the interaction” value was “with no effect”. As for S493N, the “effect of a mutation on the interaction” value is “disrupting interaction strength”.

In the case of S493E, the “effect of a mutation on the interaction” value is given as “with no effect”. For S493A the value was “with no effect”; for S493K, “with no effect”.

In the case of D454A, the “effect of a mutation on the interaction” value is “with no effect”. In the case of D454K, the “effect of a mutation on the interaction” value is recorded as “with no effect”. The entry for D454E is “with no effect”. For M483K the value was “disrupting interaction strength”; for M483E, “with no effect”. For M483A the value was “with no effect”. For the variant T475A, the “effect of a mutation on the interaction” value was “with no effect”. The entry for T475E is “with no effect”. For T475K the value was “with no effect”; for L457C, “disrupting interaction strength”; for L457E, “disrupting interaction strength”.

As for L457A, the “effect of a mutation on the interaction” value is given as “with no effect”. For L457K the value was “disrupting interaction strength”; for T467E, “with no effect”.

For the variant T467A, the “effect of a mutation on the interaction” value is “with no effect”. For T467K the value was “with no effect”. On to L486E, for which the “effect of a mutation on the interaction” value is recorded as “with no effect”.

In the case of L486K, the “effect of a mutation on the interaction” value is “with no effect”. Turning to L486A, the “effect of a mutation on the interaction” value is on record as “with no effect”. The entry for D490A is “with no effect”; for D490K it is “with no effect”. The entry for D490E is “with no effect”; for T487K it is “with no effect”; for T487E it is “with no effect”.

With T487A, the “effect of a mutation on the interaction” value was “with no effect”.

T487R: the “effect of a mutation on the interaction” value was “disrupting interaction strength”. Regarding T487P, the “effect of a mutation on the interaction” value is listed as “disrupting interaction strength”.

L478K: the “effect of a mutation on the interaction” value was “disrupting interaction strength”. For L478E the value was “with no effect”; for L478A, “disrupting interaction strength”; for P447A, “with no effect”. The entry for P447K is “disrupting interaction strength”; for P447E it is “disrupting interaction strength”; for E494A it is “with no effect”. For E494K the value was “with no effect”; for L455K, “with no effect”. Regarding L455E, the “effect of a mutation on the interaction” value is recorded as “disrupting interaction strength”. The entry for L455A is “with no effect”; for K449E it is “with no effect”; for K449A it is “with no effect”.
